The values that follow come from patent US9260500B2, “Peptide and use thereof” (Takeda Pharmaceutical Company Limited, priority 2009, dated 2016).

Assay [1] has as its target T1, human Y2 receptor (Homo sapiens, UniProt P49146).
T1 construct: expressed in transfected cells; membrane fraction
T1 sequence (P49146 1-381): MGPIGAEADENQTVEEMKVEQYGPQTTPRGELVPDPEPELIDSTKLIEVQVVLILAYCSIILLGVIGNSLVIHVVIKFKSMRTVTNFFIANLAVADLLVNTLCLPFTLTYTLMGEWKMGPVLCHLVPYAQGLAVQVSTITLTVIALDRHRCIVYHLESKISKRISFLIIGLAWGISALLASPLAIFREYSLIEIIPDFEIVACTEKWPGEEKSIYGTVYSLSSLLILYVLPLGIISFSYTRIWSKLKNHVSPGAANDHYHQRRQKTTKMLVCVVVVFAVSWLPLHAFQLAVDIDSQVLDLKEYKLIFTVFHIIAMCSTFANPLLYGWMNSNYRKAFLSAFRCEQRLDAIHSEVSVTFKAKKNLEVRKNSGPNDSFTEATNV
Put plainly: Receptor Binding Assay (RBA) for Human Y2, [125I]-PYY displacement on hY2R/CHO membrane fraction. Particulars: IC50 of test compound/IC50 of PYY(3-36) (PYY(3-36) taken as 1). A digest of the protocol:
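Read-out is [125I]-PYY displacement from membranes of CHO/dhfr− cells stably transfected with human Y2R. Membranes were obtained by disrupting cells in a buffer of 10 mM NaHCO3, 5 mM EDTA and protease inhibitors.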

Assay [2] concerns male C57EL/6J mice. In words: 3-Days Continuous Subcutaneous Administration Test-1 (food intake suppressing activity). Type of assay: in vivo, mouse. The settings on record: 0.03 mg/kg/day, subcutaneous Alzet pump, food consumption over 3 days; relative to food intake suppression rate for PYY(3-36) (1 mg/kg/day) taken as 100%. A digest of the protocol: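 Male […] mice, 12-13 weeks, received compound at 0.03 mg/kg/day by subcutaneous osmotic pump (50% DMSO vehicle), housed singly with free food access. Food consumed over 3 days measured; suppression expressed relative to PYY(3-36) (1 mg/kg/day) set as 100%.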

Assay [3] has as its target T1, human Y2 receptor. In words: Human Y2 Receptor G Protein Binding Assay (GBA), [35S]GTPγS. It is filed as biochemical. The settings on record: EC50 of test compound/EC50 of PYY(3-36) (PYY3-36 taken as 1), hY2R/CHO membrane fraction. A digest of the protocol:
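Agonism measured as [35S]GTPγS binding, read by GF/C filtration and scintillation counting after 120 min at room temperature, using human Y2 membranes at 1 μg protein/mL in pH 7.4 Tris/MgCl2/NaCl/GDP buffer. Compound serially diluted 100 μM–1 nM; EC50 normalized to PYY(3-36) (ratio = compound/PYY).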

Starred links: 1 amine or outer side, 2 acyl side, 3 side chain; linkers in the order of their positions; H or OH if unused. Non-standard residues stand in square brackets, D forms with d. *: point of attachment. X1 = ((1S)-1-carboxy-2-(4-hydroxyphenyl)ethyl)carbamoyl, O=C(O)[C@H](Cc1ccc(O)cc1)NC(=O)*; X9 = (cis-2,6-dimethylmorpholin-4-yl)carbonyl, C[C@@H]1CN(C(=O)*)C[C@H](C)O1; (2-carboxyethyl)carbamoyl = O=C(O)CCNC(=O)*; Imidazole4carbonyl = O=C(c1cnc[nH]1)*; Arg(Me) = CNC(=N)NCCC[C@H](N)C(=O)O; 4Pal = N[C@@H](Cc1ccncc1)C(=O)O; Cha = N[C@@H](CC1CCCCC1)C(=O)O; Suc = O=C(CCC(=O)[*:2])[*:1]; Iva = CC[C@](C)(N)C(=O)O; Nle = CCCC[C@H](N)C(=O)O; Aib = CC(C)(N)C(=O)O

With “(2-Carboxyethyl)carbamoyl-[D-Pro24, Iva25, Pya(4)26, Cha27,36, Aib28,31, Lys30]-PYY(23-36) ({(2-carboxyethyl)carbamoyl}-S[dP][Iva][4Pal][Cha][Aib]NK[Aib]TRQR[Cha]-NH2; SMILES CC[C@](C)(NC(=O)[C@H]1CCCN1C(=O)[C@H](CO)NC(=O)NCCC(=O)O)C(=O)N[C@@H](Cc1ccncc1)C(=O)N[C@@H](CC1CCCCC1)C(=O)NC(C)(C)C(=O)N[C@@H](CC(N)=O)C(=O)N[C@@H](CCCCN)C(=O)NC(C)(C)C(=O)N[C@H](C(=O)N[C@@H](CCCNC(=N)N)C(=O)N[C@@H](CCC(N)=O)C(=O)N[C@@H](CCCNC(=N)N)C(=O)N[C@@H](CC1CCCCC1)C(N)=O)[C@@H](C)O) [compound No. 341]”, the “RBA IC50 Ratio” value in assay [1] was found to be 3.2. In addition, the “food intake suppression rate (%)” value in assay [2] was found to be 35%. In addition, the “GBA EC50 Ratio” value in assay [3] was determined as 2.4.
With “3-Carboxypropionyl-[D-Pro24, Pya(4)26, Cha27,36, Aib28,31, Lys30]-PYY(23-36) (Suc-S[dP]R[4Pal][Cha][Aib]NK[Aib]TRQR[Cha]-NH2; SMILES C[C@@H](O)[C@H](NC(=O)C(C)(C)NC(=O)[C@H](CCCCN)NC(=O)[C@H](CC(N)=O)NC(=O)C(C)(C)NC(=O)[C@H](CC1CCCCC1)NC(=O)[C@H](Cc1ccncc1)NC(=O)[C@H](CCCNC(=N)N)NC(=O)[C@H]1CCCN1C(=O)[C@H](CO)NC(=O)CCC(=O)O)C(=O)N[C@@H](CCCNC(=N)N)C(=O)N[C@@H](CCC(N)=O)C(=O)N[C@@H](CCCNC(=N)N)C(=O)N[C@@H](CC1CCCCC1)C(N)=O) [compound No. 217]”, the “RBA IC50 Ratio” value in assay [1] amounted to 0.96. For the same substance, the “food intake suppression rate (%)” value in assay [2] came to 28%. The “GBA EC50 Ratio” value in assay [3] came out at 1.2.
On the same counts, the results for “Ac-[D-Pro24, Nle25, Pya(4)26, Cha27,36, Aib28,31, Lys30]-PYY(23-36) (Ac-S[dP][Nle][4Pal][Cha][Aib]NK[Aib]TRQR[Cha]-NH2; SMILES CCCC[C@H](NC(=O)[C@H]1CCCN1C(=O)[C@H](CO)NC(C)=O)C(=O)N[C@@H](Cc1ccncc1)C(=O)N[C@@H](CC1CCCCC1)C(=O)NC(C)(C)C(=O)N[C@@H](CC(N)=O)C(=O)N[C@@H](CCCCN)C(=O)NC(C)(C)C(=O)N[C@H](C(=O)N[C@@H](CCCNC(=N)N)C(=O)N[C@@H](CCC(N)=O)C(=O)N[C@@H](CCCNC(=N)N)C(=O)N[C@@H](CC1CCCCC1)C(N)=O)[C@@H](C)O) [compound No. 224]” are 3.0, 30% and 2.4.
On the same counts, the results for “Ac-[D-Pro24, Pya(4)26, Cha27,36, Aib28,31, Lys30]-PYY(23-36) [compound No. 138]” are 1.8, 38% and 1.3.
In the same order, the values of “2-Methylbutanoyl-[D-Pro24, Pya(4)26, Cha27,36, Aib28,31, Lys30]-PYY(23-36) ({2‑methylbutanoyl}-S[dP]R[4Pal][Cha][Aib]NK[Aib]TRQR[Cha]-NH2) [compound No. 276]” are 0.54, 16% and 0.78.
Take “Ac-[D-Pro24, Iva25,28, Pya(4)26, Cha27,36, Lys30, Aib31]-PYY(23-36) (Ac-S[dP][Iva][4Pal][Cha][Iva]NK[Aib]TRQR[Cha]-NH2; SMILES CC[C@](C)(NC(=O)[C@H](CC1CCCCC1)NC(=O)[C@H](Cc1ccncc1)NC(=O)[C@](C)(CC)NC(=O)[C@H]1CCCN1C(=O)[C@H](CO)NC(C)=O)C(=O)N[C@@H](CC(N)=O)C(=O)N[C@@H](CCCCN)C(=O)NC(C)(C)C(=O)N[C@H](C(=O)N[C@@H](CCCNC(=N)N)C(=O)N[C@@H](CCC(N)=O)C(=O)N[C@@H](CCCNC(=N)N)C(=O)N[C@@H](CC1CCCCC1)C(N)=O)[C@@H](C)O) [compound No. 296]”: the “RBA IC50 Ratio” value in assay [1] is given as 1.1. Further, in assay [2], the “food intake suppression rate (%)” value is reported as 36%. Moreover, the “GBA EC50 Ratio” value in assay [3] is listed as 1.0.
In the same order, the values of “4-Imidazolecarbonyl-[Glu23, D-Pro24, Pya(4)26, Cha27,36, Aib28,31, Lys30]-PYY(23-36) (Imidazole4carbonyl-E[dP]R[4Pal][Cha][Aib]NK[Aib]TRQR[Cha]-NH2; SMILES C[C@@H](O)[C@H](NC(=O)C(C)(C)NC(=O)[C@H](CCCCN)NC(=O)[C@H](CC(N)=O)NC(=O)C(C)(C)NC(=O)[C@H](CC1CCCCC1)NC(=O)[C@H](Cc1ccncc1)NC(=O)[C@H](CCCNC(=N)N)NC(=O)[C@H]1CCCN1C(=O)[C@H](CCC(=O)O)NC(=O)c1cnc[nH]1)C(=O)N[C@@H](CCCNC(=N)N)C(=O)N[C@@H](CCC(N)=O)C(=O)N[C@@H](CCCNC(=N)N)C(=O)N[C@@H](CC1CCCCC1)C(N)=O) [compound No. 216]” are 1.3, 36% and 1.3.
In the same order, the values of “Ac-[D-Pro24, Arg(Me)25,30, Pya(4)26, Cha27,36, Aib28,31]-PYY(23-36) (Ac-S[dP][Arg(Me)][4Pal][Cha][Aib]N[Arg(Me)][Aib]TRQR[Cha]-NH2; SMILES CNC(=N)NCCC[C@H](NC(=O)[C@H](CC(N)=O)NC(=O)C(C)(C)NC(=O)[C@H](CC1CCCCC1)NC(=O)[C@H](Cc1ccncc1)NC(=O)[C@H](CCCNC(=N)NC)NC(=O)[C@H]1CCCN1C(=O)[C@H](CO)NC(C)=O)C(=O)NC(C)(C)C(=O)N[C@H](C(=O)N[C@@H](CCCNC(=N)N)C(=O)N[C@@H](CCC(N)=O)C(=O)N[C@@H](CCCNC(=N)N)C(=O)N[C@@H](CC1CCCCC1)C(N)=O)[C@@H](C)O) [compound No. 315]” are 1.5, 45% and 1.5.
With “Ac-[D-Pro24, Iva25, Pya(4)26, Cha27,36, Leu(Me)28, Lys30, Aib31]-PYY(23-36) [compound No. 295]”, the “RBA IC50 Ratio” value in assay [1] turned out to be 0.76. The “food intake suppression rate (%)” value in assay [2] is recorded as 52%. Further, the “GBA EC50 Ratio” value in assay [3] was determined as 1.2.
On the same counts, the results for “[(1S)-1-Carboxy-2-(4-hydroxyphenyl)ethyl]carbamoyl-[D-Pro24, Pya(4)26, Cha27,36, Aib28,31, Lys30]-PYY(23-36) (X1-S[dP]R[4Pal][Cha][Aib]NK[Aib]TRQR[Cha]-NH2; SMILES C[C@@H](O)[C@H](NC(=O)C(C)(C)NC(=O)[C@H](CCCCN)NC(=O)[C@H](CC(N)=O)NC(=O)C(C)(C)NC(=O)[C@H](CC1CCCCC1)NC(=O)[C@H](Cc1ccncc1)NC(=O)[C@H](CCCNC(=N)N)NC(=O)[C@H]1CCCN1C(=O)[C@H](CO)NC(=O)N[C@@H](Cc1ccc(O)cc1)C(=O)O)C(=O)N[C@@H](CCCNC(=N)N)C(=O)N[C@@H](CCC(N)=O)C(=O)N[C@@H](CCCNC(=N)N)C(=O)N[C@@H](CC1CCCCC1)C(N)=O) [compound No. 285]” are 0.95, 28% and 1.2.
“Ac-[D-Pro24, Iva25, Pya(4)26, Cha27,36, Aib28,31, Lys30]-PYY(23-36) (Ac-S[dP][Iva][4Pal][Cha][Aib]NK[Aib]TRQR[Cha]-NH2; SMILES CC[C@](C)(NC(=O)[C@H]1CCCN1C(=O)[C@H](CO)NC(C)=O)C(=O)N[C@@H](Cc1ccncc1)C(=O)N[C@@H](CC1CCCCC1)C(=O)NC(C)(C)C(=O)N[C@@H](CC(N)=O)C(=O)N[C@@H](CCCCN)C(=O)NC(C)(C)C(=O)N[C@H](C(=O)N[C@@H](CCCNC(=N)N)C(=O)N[C@@H](CCC(N)=O)C(=O)N[C@@H](CCCNC(=N)N)C(=O)N[C@@H](CC1CCCCC1)C(N)=O)[C@@H](C)O) [compound No. 237]”: the “RBA IC50 Ratio” value in assay [1] was determined as 2.9. For the same substance, in assay [2], the “food intake suppression rate (%)” value stood at 46%. The “GBA EC50 Ratio” value in assay [3] came out at 2.9.
Consider “(cis-2,6-Dimethylmorpholin-4-yl)carbonyl-[D-Pro24, Pya(4)26, Cha27,36, Aib28,31, Lys30]-PYY(23-36) (X9-S[dP]R[4Pal][Cha][Aib]NK[Aib]TRQR[Cha]-NH2; SMILES C[C@@H]1CN(C(=O)N[C@@H](CO)C(=O)N2CCC[C@@H]2C(=O)N[C@@H](CCCNC(=N)N)C(=O)N[C@@H](Cc2ccncc2)C(=O)N[C@@H](CC2CCCCC2)C(=O)NC(C)(C)C(=O)N[C@@H](CC(N)=O)C(=O)N[C@@H](CCCCN)C(=O)NC(C)(C)C(=O)N[C@H](C(=O)N[C@@H](CCCNC(=N)N)C(=O)N[C@@H](CCC(N)=O)C(=O)N[C@@H](CCCNC(=N)N)C(=O)N[C@@H](CC2CCCCC2)C(N)=O)[C@@H](C)O)C[C@H](C)O1) [compound 269]”, for which the “RBA IC50 Ratio” value in assay [1] is on record as 0.91. Further, the “food intake suppression rate (%)” value in assay [2] came out at 11%. Also, the “GBA EC50 Ratio” value in assay [3] worked out at 0.65.
